B1: CGN (protein, UniProt Q9P2M7 1-1203, looked up)
Cingulin: MEQAPNMAEPRGPVDHGVQIRFITEPVSGAEMGTLRRGGRRPAKDARASTYGVAVRVQGIAGQPFVVLNSGEKGGDSFGVQIKGANDQGASGALSSDLELPENPYSQVKGFPAPSQSSTSDEEPGAYWNGKLLRSHSQASLAGPGPVDPSNRSNSMLELAPKVASPGSTIDTAPLSSVDSLINKFDSQLGGQARGRTGRRTRMLPPEQRKRSKSLDSRLPRDTFEERERQSTNHWTSSTKYDNHVGTSKQPAQSQNLSPLSGFSRSRQTQDWVLQSFEEPRRSAQDPTMLQFKSTPDLLRDQQEAAPPGSVDHMKATIYGILREGSSESETSVRRKVSLVLEKMQPLVMVSSGSTKAVAGQGELTRKVEELQRKLDEEVKKRQKLEPSQVGLERQLEEKTEECSRLQELLERRKGEAQQSNKELQNMKRLLDQGEDLRHGLETQVMELQNKLKHVQGPEPAKEVLLKDLLETRELLEEVLEGKQRVEEQLRLRERELTALKGALKEEVASRDQEVEHVRQQYQRDTEQLRRSMQDATQDHAVLEAERQKMSALVRGLQRELEETSEETGHWQSMFQKNKEDLRATKQELLQLRMEKEEMEEELGEKIEVLQRELEQARASAGDTRQVEVLKKELLRTQEELKELQAERQSQEVAGRHRDRELEKQLAVLRVEADRGRELEEQNLQLQKTLQQLRQDCEEASKAKMVAEAEATVLGQRRAAVETTLRETQEENDEFRRRILGLEQQLKETRGLVDGGEAVEARLRDKLQRLEAEKQQLEEALNASQEEEGSLAAAKRALEARLEEAQRGLARLGQEQQTLNRALEEEGKQREVLRRGKAELEEQKRLLDRTVDRLNKELEKIGEDSKQALQQLQAQLEDYKEKARREVADAQRQAKDWASEAEKTSGGLSRLQDEIQRLRQALQASQAERDTARLDKELLAQRLQGLEQEAENKKRSQDDRARQLKGLEEKVSRLETELDEEKNTVELLTDRVNRGRDQVDQLRTELMQERSARQDLECDKISLERQNKDLKTRLASSEGFQKPSASLSQLESQNQLLQERLQAEEREKTVLQSTNRKLERKVKELSIQIEDERQHVNDQKDQLSLRVKALKRQVDEAEEEIERLDGLRKKAQREVEEQHEVNEQLQARIKSLEKDSWRKASRSAAESALKNEGLSSDEEFDSVYDPSSIASLLTESNLQTSSC
B2: LGALS3BP (protein, UniProt Q08380 19-585, looked up)
Galectin-3-binding protein: VNDGDMRLADGGATNQGRVEIFYRGQWGTVCDNLWDLTDASVVCRALGFENATQALGRAAFGQGSGPIMLDEVQCTGTEASLADCKSLGWLKSNCRHERDAGVVCTNETRSTHTLDLSRELSEALGQIFDSQRGCDLSISVNVQGEDALGFCGHTVILTANLEAQALWKEPGSNVTMSVDAECVPMVRDLLRYFYSRRIDITLSSVKCFHKLASAYGARQLQGYCASLFAILLPQDPSFQMPLDLYAYAVATGDALLEKLCLQFLAWNFEALTQAEAWPSVPTDLLQLLLPRSDLAVPSELALLKAVDTWSWGERASHEEVEGLVEKIRFPMMLPEELFELQFNLSLYWSHEALFQKKTLQALEFHTVPFQLLARYKGLNLTEDTYKPRIYTSPTWSAFVTDSSWSARKSQLVYQSRRGPLVKYSSDYFQAPSDYRYYPYQSFQTPQHPSFLFQDKRVSWSLVYLPTIQSCWNYGFSCSSDELPVLGLTKSGGSDRTIAYENKALMLCEGLFVADVTDFEGWKAAIPSALDTNSSKSTSSFPCPAGHFNGFRTVIRPFYLTNSSGVD
B3: BANF1 (protein, UniProt O75531 1-89, looked up)
Barrier-to-autointegration …: MTTSQKHRDFVAEPMGEKPVGSLAGIGEVLGKKLEERGFDKAYVVLGQFLVLKKDEDLFREWLKDTCGANAKQSRDCFGCLREWCDAFL
B4: DARS (protein, UniProt P14868 1-501, looked up)
Aspartate--tRNA ligase, …: MPSASASRKSQEKPREIMDAAEDYAKERYGISSMIQSQEKPDRVLVRVRDLTIQKADEVVWVRARVHTSRAKGKQCFLVLRQQQFNVQALVAVGDHASKQMVKFAANINKESIVDVEGVVRKVNQKIGSCTQQDVELHVQKIYVISLAEPRLPLQLDDAVRPEAEGEEEGRATVNQDTRLDNRVIDLRTSTSQAVFRLQSGICHLFRETLINKGFVEIQTPKIISAASEGGANVFTVSYFKNNAYLAQSPQLYKQMCICADFEKVFSIGPVFRAEDSNTHRHLTEFVGLDIEMAFNYHYHEVMEEIADTMVQIFKGLQERFQTEIQTVNKQFPCEPFKFLEPTLRLEYCEALAMLREAGVEMGDEDDLSTPNEKLLGHLVKEKYDTDFYILDKYPLAVRPFYTMPDPRNPKQSNSYDMFMRGEEILSGAQRIHDPQLLTERALHHGIDLEKIKAYIDSFRFGAPPHAGGGIGLERVTMLFLGLHNVRQTSMFPRDPKRLTP
B5: RTCB (protein, UniProt Q9Y3I0 1-505, looked up)
RNA-splicing ligase RtcB …: MSRSYNDELQFLEKINKNCWRIKKGFVPNMQVEGVFYVNDALEKLMFEELRNACRGGGVGGFLPAMKQIGNVAALPGIVHRSIGLPDVHSGYGFAIGNMAAFDMNDPEAVVSPGGVGFDINCGVRLLRTNLDESDVQPVKEQLAQAMFDHIPVGVGSKGVIPMNAKDLEEALEMGVDWSLREGYAWAEDKEHCEEYGRMLQADPNKVSARAKKRGLPQLGTLGAGNHYAEIQVVDEIFNEYAAKKMGIDHKGQVCVMIHSGSRGLGHQVATDALVAMEKAMKRDKIIVNDRQLACARIASPEGQDYLKGMAAAGNYAWVNRSSMTFLTRQAFAKVFNTTPDDLDLHVIYDVSHNIAKVEQHVVDGKERTLLVHRKGSTRAFPPHHPLIAVDYQLTGQPVLIGGTMGTCSYVLTGTEQGMTETFGTTCHGAGRALSRAKSRRNLDFQDVLDKLADMGIAIRVASPKLVMEEAPESYKNVTDVVNTCHDAGISKKAIKLRPIAVIKG
B6: ABCD3 (protein, UniProt P28288 1-659, looked up)
ATP-binding cassette …: MAAFSKYLTARNSSLAGAAFLLLCLLHKRRRALGLHGKKSGKPPLQNNEKEGKKERAVVDKVFFSRLIQILKIMVPRTFCKETGYLVLIAVMLVSRTYCDVWMIQNGTLIESGIIGRSRKDFKRYLLNFIAAMPLISLVNNFLKYGLNELKLCFRVRLTKYLYEEYLQAFTYYKMGNLDNRIANPDQLLTQDVEKFCNSVVDLYSNLSKPFLDIVLYIFKLTSAIGAQGPASMMAYLVVSGLFLTRLRRPIGKMTITEQKYEGEYRYVNSRLITNSEEIAFYNGNKREKQTVHSVFRKLVEHLHNFILFRFSMGFIDSIIAKYLATVVGYLVVSRPFLDLSHPRHLKSTHSELLEDYYQSGRMLLRMSQALGRIVLAGREMTRLAGFTARITELMQVLKDLNHGKYERTMVSQQEKGIEGVQVIPLIPGAGEIIIADNIIKFDHVPLATPNGDVLIRDLNFEVRSGANVLICGPNGCGKSSLFRVLGELWPLFGGRLTKPERGKLFYVPQRPYMTLGTLRDQVIYPDGREDQKRKGISDLVLKEYLDNVQLGHILEREGGWDSVQDWMDVLSGGEKQRMAMARLFYHKPQFAILDECTSAVSVDVEGYIYSHCRKVGITLFTVSHRKSLWKHHEYYLHMDGRGNYEFKQITEDTVEFGS
B7: TMEM43 (protein, UniProt Q9BTV4 2-400, looked up)
Transmembrane protein 43: AANYSSTSTRREHVKVKTSSQPGFLERLSETSGGMFVGLMAFLLSFYLIFTNEGRALKTATSLAEGLSLVVSPDSIHSVAPENEGRLVHIIGALRTSKLLSDPNYGVHLPAVKLRRHVEMYQWVETEESREYTEDGQVKKETRYSYNTEWRSEIINSKNFDREIGHKNPSAMAVESFMATAPFVQIGRFFLSSGLIDKVDNFKSLSLSKLEDPHVDIIRRGDFFYHSENPKYPEVGDLRVSFSYAGLSGDDPDLGPAHVVTVIARQRGDQLVPFSTKSGDTLLLLHHGDFSAEEVFHRELRSNSMKTWGLRAAGWMAMFMGLNLMTRILYTLVDWFPVFRDLVNIGLKAFAFCVATSLTLLTVAAGWLFYRPLWALLIAGLALVPILVARTRVPAKKLE

system: GFP-14-3-3β and its binding proteins; experiment: GFP-14-3-3β co-IP with LC-MS/MS label-free quantification, untreated versus PP1c-treated; set-up: species or system human; conditions: PP1 vs untreated; label-free quantification
Description: (§1) HeLa Kyoto cells expressing transiently transfected pEGFP(C1)-14-3-3β or pEGFP(C1) control plasmid, were incubated with 20 nM Calyculin A (# 9902 S, Cell Signaling Technology) for 12 min. Cells were washed twice on ice with cold PBS and after addition of 500 µL lysis buffer (100 mM NaCl, 10 mM Tris, 0.1% IGEPAL, 1 mM EDTA, 1 mM EGTA, 20 nM Calyculin A, 1x cOmplete Mini protease inhibitor cocktail (Sigma), 1 mM DTT, 1 mM MnCl2) cells were scraped from plates, lysed by 10 pushes through an injection needle (21 G, BD) and the insoluble fraction was pelleted by centrifugation (10 min, 10^4 rcf, 4 °C). Supernatants were then subjected to incubation with 1 µM recombinant phosphatase or buffer for 1 h at 30 °C. Next, we subjected samples to immunoprecipitation using α-GFP nanobodies covalently coupled to agarose beads (2 h, 4 °C, obtained from the EMBL PEPcore Core Facility). Beads were then washed three times with lysis buffer and samples were eluted in 1x LDS sample buffer (Thermo Fisher Scientific) by heating to 70 °C for 10 min.
(§2) The samples were then reduced with 25 mM dithiothreitol (10 min at 70 °C) and alkylated with 55 mM chloroacetamide (room temperature, 30 min, in the dark). Proteins were run on a precast 4–12% NuPAGE gel (ThermoFisher Scientific) for about 1 cm to concentrate the sample prior to in-gel tryptic digestion, which was performed according to the standard procedures. The peptides obtained were dried to completeness and resuspended in 12 µL of buffer A (0.1% FA), and 5 µL of sample were injected per MS measurement. The experiment was carried out in three independent replicates.
(§3) The samples were analyzed by LC-MS/MS on a Dionex Ultimate 3000 nano-HPLC coupled online to a Fusion Lumos Tribrid mass spectrometer (Thermo Fisher Scientific). Peptides were delivered to a trap column (75 µm × 2 cm, packed in-house with 5 µm C18 resin; Reprosil PUR AQ, Dr. Maisch) and washed using 0.1% FA at a flow rate of 5 µL/min for 10 min. Subsequently, peptides were transferred to an analytical column (75 µm × 45 cm, packed in-house with 3 µm C18 resin; Reprosil Gold) applying a flow rate of 300 nL/min and separated using a 60 min linear gradient from 4% to 32% LC solvent B (0.1% FA, 5% DMSO in ACN) in LC solvent A (0.1% FA in 5% DMSO). The eluate from the analytical column was sprayed via a stainless steel emitter (Thermo Fisher Scientific) at a source voltage of 2.1 kV into the mass spectrometer. The transfer capillary was heated to 275 °C. The Fusion Lumos was operated in positive ionization mode and data-dependent acquisition (DDA), automatically switching between MS1 and MS2 spectrum acquisition. Full scan MS1 spectra were recorded in the Orbitrap from 360 to 1300 m/z at a resolution of 60k (automatic gain control (AGC) target value of 4e5 charges, maximum injection time (maxIT) of 50 ms). Up to 20 peptide precursors were isolated (isolation window, 1.7 m/z; maximum injection time, 25 ms; and AGC value, 1e5), fragmented by high-energy collision-induced dissociation (HCD) using 30% normalized collision energy (NCE), and analyzed at a resolution of 15k in the Orbitrap. Precursor ions that were singly charged, unassigned, or with charge states >6+ were excluded. The dynamic exclusion duration of fragmented precursor ions was 20 s.
(§4) Peptide and protein identification and LFQ were performed using MaxQuant software (version 1.6.1.0)[64] by searching the data against all canonical protein sequences as annotated in the Swissprot reference database (human proteins only, 20193 entries, downloaded 22 March 2016, internally annotated with PFAM domains) using the embedded search engine Andromeda[65]. The MaxQuant search was performed using two variable modifications; oxidation of methionine and N-terminal protein acetylation. Carbamidomethylation on cysteines was specified as a fixed modification. Trypsin (Trypsin/P) was specified as the proteolytic enzyme with up to two allowed missed cleavage sites.

Difference (log2), PP1 vs untreated [log2]	Molecule
1.065	B1
1.074	B2
1.068	B3
1.065	B4
1.104	B5
1.116	B6
1.071	B7

system: GFP-14-3-3β; experiment: GFP-14-3-3β co-IP with LC-MS/MS, untreated GFP-14-3-3β versus GFP control (14-3-3 interactome); type: binding, human; conditions: untreated vs GFP; label-free quantification
Description: as §1, §2, §3, §4

Molecule	Difference (log2), untreated vs GFP [log2]
B1	1.896
B2	-0.5352
B3	-2.499
B4	-1.63
B5	-0.6754
B6	-0.7267
B7	-0.2983

Reference: PMC7367873, “Dissecting the sequence determinants for dephosphorylation by the catalytic subunits of phosphatases PP1 and PP2A” (Nature Communications, 2020)
